Molecular target: fluorescently labelled recombinant HAUSP (UniProt Q93009)
Assay: other fluorescence titration; BODIPY FL-labelled HAUSP titrated with unlabeled PE_PGRS38; 25°C, 30 mM Tris pH 7.4, 150 mM NaCl, 1 mM dithiothreitol; fitted with Grafit

Sequence of UniProt Q93009 (Q93009 whole entry): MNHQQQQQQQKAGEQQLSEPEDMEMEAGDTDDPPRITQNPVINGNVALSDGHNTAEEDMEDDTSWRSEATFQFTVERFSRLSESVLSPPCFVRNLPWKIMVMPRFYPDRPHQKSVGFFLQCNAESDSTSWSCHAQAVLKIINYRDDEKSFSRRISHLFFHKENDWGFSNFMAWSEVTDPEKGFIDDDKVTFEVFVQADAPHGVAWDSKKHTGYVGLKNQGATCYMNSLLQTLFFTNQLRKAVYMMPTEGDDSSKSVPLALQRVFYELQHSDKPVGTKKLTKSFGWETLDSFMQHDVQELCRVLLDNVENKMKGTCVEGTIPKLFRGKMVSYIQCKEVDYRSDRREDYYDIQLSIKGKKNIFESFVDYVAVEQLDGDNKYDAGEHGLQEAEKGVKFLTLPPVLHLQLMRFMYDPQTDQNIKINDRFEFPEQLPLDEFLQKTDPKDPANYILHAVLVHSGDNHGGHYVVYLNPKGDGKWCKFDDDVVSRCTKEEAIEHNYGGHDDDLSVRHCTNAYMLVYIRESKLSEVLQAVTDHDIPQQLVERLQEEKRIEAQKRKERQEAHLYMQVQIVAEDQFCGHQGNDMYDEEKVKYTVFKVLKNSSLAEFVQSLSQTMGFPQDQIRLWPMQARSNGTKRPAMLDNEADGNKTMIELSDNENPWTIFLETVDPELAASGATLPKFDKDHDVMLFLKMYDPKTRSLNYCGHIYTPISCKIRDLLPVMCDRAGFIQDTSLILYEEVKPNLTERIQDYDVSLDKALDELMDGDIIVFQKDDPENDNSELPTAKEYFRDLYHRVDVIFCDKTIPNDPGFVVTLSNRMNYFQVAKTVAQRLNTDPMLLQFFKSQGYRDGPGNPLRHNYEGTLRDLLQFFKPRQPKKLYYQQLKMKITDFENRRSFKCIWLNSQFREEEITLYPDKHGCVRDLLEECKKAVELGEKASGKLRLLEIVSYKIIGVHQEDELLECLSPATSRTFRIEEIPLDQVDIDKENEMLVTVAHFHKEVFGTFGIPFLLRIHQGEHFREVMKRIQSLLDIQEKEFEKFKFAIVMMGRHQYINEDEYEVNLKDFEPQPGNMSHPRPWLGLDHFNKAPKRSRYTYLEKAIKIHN

Question: “recombinant PE_PGRS38 (from UniProt L7N6A1 1-532) (natural protein)” was tested. Which Kd did it give?
Answer: 143 nM

Source: PMC9095961
